For the series, the system named is O=[N+]([O-])c1ccc(O[C@@H]2O[C@H](CO)[C@@H](O)[C@H](O)[C@H]2O)cc1. Kind of series: pNP release, initial-rate kinetics. It is filed as biochemical, Bacteroides ovatus.

Consider BACOVA_02738 (GH3) (Bacteroides ovatus), for which the Michaelis constant (Km) (in general, the substrate concentration at which the rate is half of its maximum) came to 2530 ± 130 µM; the kcat (in general, the maximal rate divided by the concentration of active sites) was 0.212 ± 0.004 s⁻¹; the kcat/Km (in general, the turnover number divided by the Michaelis constant) came out at 83.8 M⁻¹ s⁻¹.

Take BoGH3MLG (Bacteroides ovatus): the Km worked out at 2950 ± 140 µM, the turnover number (kcat) stood at 59.5 ± 1.46 s⁻¹ and the specificity constant (kcat/Km) was 20200 M⁻¹ s⁻¹.

Values taken from PMC5656003.
